Literature values in PMC3238542.
Like-named read-outs stand apart in the source and are kept apart here.

Key:
pyruvate carboxylase [1] = target: pyruvate carboxylase (UniProt P11498)
pyruvate carboxylase [2] = target: pyruvate carboxylase (UniProt P11498); assay: enzyme inhibition

UniProt P11498, sequence (P11498 21-1178): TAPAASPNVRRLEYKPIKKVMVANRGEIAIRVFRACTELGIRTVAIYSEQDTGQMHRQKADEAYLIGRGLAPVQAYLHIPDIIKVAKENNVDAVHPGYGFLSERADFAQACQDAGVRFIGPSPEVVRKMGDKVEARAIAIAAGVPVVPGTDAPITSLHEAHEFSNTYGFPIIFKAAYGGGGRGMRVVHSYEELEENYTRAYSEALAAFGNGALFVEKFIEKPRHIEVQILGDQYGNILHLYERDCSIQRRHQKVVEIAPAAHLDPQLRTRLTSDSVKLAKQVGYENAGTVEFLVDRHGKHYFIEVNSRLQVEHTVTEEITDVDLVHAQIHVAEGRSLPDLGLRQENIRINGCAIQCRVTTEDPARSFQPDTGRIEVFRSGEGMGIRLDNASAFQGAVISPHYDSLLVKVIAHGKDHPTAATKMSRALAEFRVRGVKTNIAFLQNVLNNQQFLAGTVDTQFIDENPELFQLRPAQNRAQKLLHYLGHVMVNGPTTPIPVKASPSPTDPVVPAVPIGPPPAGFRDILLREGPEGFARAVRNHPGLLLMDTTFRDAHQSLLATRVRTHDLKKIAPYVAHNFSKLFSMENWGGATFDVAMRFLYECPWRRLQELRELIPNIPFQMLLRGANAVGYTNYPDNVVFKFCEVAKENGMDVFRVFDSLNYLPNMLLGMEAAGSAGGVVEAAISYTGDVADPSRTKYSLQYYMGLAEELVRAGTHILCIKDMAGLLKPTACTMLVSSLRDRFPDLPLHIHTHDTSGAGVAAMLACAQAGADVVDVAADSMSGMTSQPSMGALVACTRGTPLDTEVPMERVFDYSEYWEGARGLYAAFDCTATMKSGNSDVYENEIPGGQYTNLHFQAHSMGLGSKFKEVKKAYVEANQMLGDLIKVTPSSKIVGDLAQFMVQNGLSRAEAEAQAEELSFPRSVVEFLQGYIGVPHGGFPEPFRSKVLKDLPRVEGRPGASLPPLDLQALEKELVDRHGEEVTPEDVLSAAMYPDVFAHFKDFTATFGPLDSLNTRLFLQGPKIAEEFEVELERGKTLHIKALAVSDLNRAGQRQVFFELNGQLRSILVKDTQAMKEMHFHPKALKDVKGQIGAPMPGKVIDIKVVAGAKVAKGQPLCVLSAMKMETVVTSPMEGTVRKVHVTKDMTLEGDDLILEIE

Ki (pyruvate carboxylase [1]): 4 nM | Ki (pyruvate carboxylase [2]): 5 nM
Substance: prohibitin (Phb1) (from UniProt P35232)
